Test results as given in publication PMC4243253 (Biochemical Journal, 2014).

B1: Burkholderia cenocepacia kynurenine formamidase KynB (enzyme)
chain: MDTLWDISPPVSPATPVWPGDTPVAVERVWRMEAGSPVNVARLTLSPHTGAHCDAPLHYDADGAPIGAVPLDTYLGPCRVIHCIGAAPVVRPADVEAALDGVPPRVLLRTYARAAVEQWDSNFCAVAPDTVDLLAAHGVKLIGIDTPSLDPQESKTMDAHRRVRAHRMAILEGIVLDDVPPGDYELIALPLKFATLDASPVRAVLRALPAQAS
notes: also called BcKynB; KFase
B2: Pseudomonas aeruginosa kynurenine formamidase KynB, His-tagged (enzyme)
chain: MTSLRYWDISPALDPNTPTWPGDTPFQQEWAARLDEQCPVNVGRITLSPHTGAHVDGPLHYRADGLPIGQVPLDIYMGPCRVIHCIGANPLVTPEHLAGQLDDLPSRVLLRTFERVPANWPEGFCAIAPATIECLAERGVRLVGIDTPSLDPQHSKTLDAHHAVGRHGMAILEGVVLDDVPAGDYELLALPLKFTHLDASPVRAVLRALPTAE
notes: also called PaKynB; PaKynB-His; source: E. coli BL21(DE3)pLysS, purified (HisTrap, SEC Superdex75); not shown: His6, N-terminal, kept

Target: the molecule itself
Experiment: SEC

Row | Protein | stoichiometry N
1 | B1 | 2
2 | B2 | 2
